FireProtDB (doi:10.1021/bi982078m)

Conditions: Aspergillus oryzae (strain ATCC 42149 / RIB 40), pH 3, 25 °C, Absorbance, glycine-HCl 0.05 M, reversible: yes, whole UniProt chain shown

B1: Guanyl-specific ribonuclease T1 wild type, P00651 (protein)
chain: MMYSKLLTLTTLLLPTALALPSLVERACDYTCGSNCYSSSDVSTAQAAGYQLHEDGETVGSNSYPHKYNNYEGFDFSVSSPYYEWPILSSGDVYSGGSPGADRVVFNENNQLAGVITHTGASGNNFVECT
With B1 the denaturant m value (GdnHCl, KCl 0.1-1.0 M) was 2.83 kcal/mol/M, the “denaturant midpoint (higher = more stable)” value (shortened to “denaturant midpoint”) (GdnHCl, KCl 0.1-1.0 M) was 1.78 M and the unfolding free energy (GdnHCl, KCl 0.1-1.0 M) was 5.03 kcal/mol. For the same protein, the denaturant m value (Urea, KCl 0.10 M) was 1.98 kcal/mol/M, the “denaturant midpoint” value (Urea, KCl 0.10 M) was 2.05 M and the unfolding free energy (Urea, KCl 0.10 M) was 4.07 kcal/mol. The denaturant m value (Urea, KCl 0.50 M) was 1.71 kcal/mol/M, the “denaturant midpoint” value (Urea, KCl 0.50 M) was 2.4 M and the unfolding free energy (Urea, KCl 0.50 M) was 4.1 kcal/mol. The denaturant m value (Urea, KCl 1.00 M) was 1.59 kcal/mol/M, the “denaturant midpoint” value (Urea, KCl 1.00 M) was 2.82 M and the unfolding free energy (Urea, KCl 1.00 M) was 4.49 kcal/mol. The denaturant m value (Urea, KCl 1.25 M) was 1.65 kcal/mol/M, the “denaturant midpoint” value (Urea, KCl 1.25 M) was 3.02 M and the unfolding free energy (Urea, KCl 1.25 M) was 4.99 kcal/mol. For the same protein, the denaturant m value (Urea, KCl 1.50 M) was 1.54 kcal/mol/M, the “denaturant midpoint” value (Urea, KCl 1.50 M) was 3.41 M and the unfolding free energy (Urea, KCl 1.50 M) was 5.26 kcal/mol.
